No end group written: not given here. *: point of attachment. Myristoyl = CCCCCCCCCCCCCC(=O)*
Columns and labels:
[1] = target: two different p53 missense mutations (A161T and R175H) expressed in U266 and OPM2 multiple myeloma cells; assay: cell-based or functional assay
Full length p53 = assay: MST; FIG. 3B; conditions: chains peptide; modification not given

Kd (Full length p53) [µM]	Binder	IC50, cell viability (CellTiter-Glo, 72 h) of multiple myeloma cell lines [1] [µM]
–	Myristoyl-RRHSTPHPD [pCAP 250 (SEQ ID NO: 1)]	1.5 to 3
30	RRHSTPHPD [pCAP250]	–
